Assay results from patent US20190233517A1.
Each block holds one substance with its values, some of them ahead of it.

Experiments:
HER3 = HER3 (UniProt P21860); assay: kinetic binding data, method not stated
Raji (human) = Raji (human) (UniProt P11836); assay: FACS binding; Raji cells
Daudi = assay: FACS binding; Daudi cells

Raji (human), sequence (P11836 whole entry): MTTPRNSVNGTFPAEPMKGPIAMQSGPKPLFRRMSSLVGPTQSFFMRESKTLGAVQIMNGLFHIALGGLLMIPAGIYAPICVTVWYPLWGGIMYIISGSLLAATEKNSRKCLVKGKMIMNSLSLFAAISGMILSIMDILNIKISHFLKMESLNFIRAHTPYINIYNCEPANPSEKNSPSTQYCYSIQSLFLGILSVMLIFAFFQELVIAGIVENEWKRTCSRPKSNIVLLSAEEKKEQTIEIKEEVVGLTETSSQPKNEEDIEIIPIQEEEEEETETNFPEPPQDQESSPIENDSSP

Kd (HER3): 0.0321 nM
Substance: FIT019a-Ig HER3 (patritumab)/EGFR (Panitumumab) (bispecific antibody)

EC50 (Raji (human)): 3.25 nM
Substance: Epratuzuman/ Ofatumumab (1:1)

EC50 (Daudi): 6.98 nM
Substance: Epratuzumab/ Ofatumumab (1:1)
